From patent publication US20180155405A1 (AB INITIO BIOTHERAPEUTICS, published 2018)
Read-outs that look alike come from different tables or passages of the source.

Key:
[1] = molecular target: T1, CD47 on total splenic cells; test: in vivo receptor occupancy: NSG mice injected with GV3 on three consecutive days, spleen cells harvested 1 hr and 24 hrs after the last injection, free CD47 read by SIRPA-tetramer binding (FACS)
T1 construct: also called % occupied CD47
T1 sequence (Q61735 whole entry, species assumed, looked up): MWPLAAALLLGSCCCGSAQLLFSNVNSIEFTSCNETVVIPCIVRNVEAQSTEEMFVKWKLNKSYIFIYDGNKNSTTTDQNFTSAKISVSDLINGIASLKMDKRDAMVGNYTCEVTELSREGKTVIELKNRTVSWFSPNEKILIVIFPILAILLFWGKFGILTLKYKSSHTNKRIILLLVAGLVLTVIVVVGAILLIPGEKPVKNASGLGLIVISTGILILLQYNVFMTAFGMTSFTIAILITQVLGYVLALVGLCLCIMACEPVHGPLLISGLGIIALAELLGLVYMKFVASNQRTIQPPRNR

[2] = molecular target: T2, CD47 on the surface of GFP-luciferase+ DLD1-Tg cells (UniProt Q08722 19-323, limits assumed); test: flow cytometry competition on DLD1-Tg(GFP-Luc) cells (CD47+), competitor 50 nM biotinylated SIRP-alpha tetramer
T2 construct: whole, on cells; also called CD47+ cells; CD47+ PD-L1+ cells
T2 sequence (Q08722 19-323 limits assumed): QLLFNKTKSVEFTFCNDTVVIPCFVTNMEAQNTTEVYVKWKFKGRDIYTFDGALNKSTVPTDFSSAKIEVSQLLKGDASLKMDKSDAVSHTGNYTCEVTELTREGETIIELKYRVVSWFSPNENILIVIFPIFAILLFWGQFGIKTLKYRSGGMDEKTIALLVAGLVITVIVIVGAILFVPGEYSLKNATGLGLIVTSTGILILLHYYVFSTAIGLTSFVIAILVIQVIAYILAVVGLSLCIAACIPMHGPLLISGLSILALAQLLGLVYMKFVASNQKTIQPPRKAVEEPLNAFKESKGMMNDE

[3] = molecular target: T3, biotinylated human CD47 (IgSF domain, residues 1-117, C15G) (human, UniProt Q08722 19-135, biotinylated in vitro with BirA ligase on the biotin acceptor peptide tag); test: SPR (Biacore T100), biotinylated CD47 on SA chip, 1:1 Langmuir model
T3 construct: range 1-117; Captured on a Biacore SA chip; also called biotinylated CD47
T3 sequence (Q08722 other isoform, or with tags, fused parts or gaps C15G C15G limits assumed): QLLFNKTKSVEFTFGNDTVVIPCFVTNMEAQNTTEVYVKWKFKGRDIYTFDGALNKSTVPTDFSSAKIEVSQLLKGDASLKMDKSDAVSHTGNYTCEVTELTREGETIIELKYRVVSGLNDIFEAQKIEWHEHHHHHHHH

[4] = molecular target: T4, CD47 on mouse splenocytes (mouse, UniProt Q61735); test: in vivo receptor occupancy: NSG mice injected with GV3 on three consecutive days, spleen cells harvested 1 hr and 24 hrs after the last injection, free CD47 read by SIRPA-tetramer binding (FACS) on mouse splenocytes
T4 construct: cell surface, full length; also called % occupied CD47
T4 sequence (receptor on cells, looked up): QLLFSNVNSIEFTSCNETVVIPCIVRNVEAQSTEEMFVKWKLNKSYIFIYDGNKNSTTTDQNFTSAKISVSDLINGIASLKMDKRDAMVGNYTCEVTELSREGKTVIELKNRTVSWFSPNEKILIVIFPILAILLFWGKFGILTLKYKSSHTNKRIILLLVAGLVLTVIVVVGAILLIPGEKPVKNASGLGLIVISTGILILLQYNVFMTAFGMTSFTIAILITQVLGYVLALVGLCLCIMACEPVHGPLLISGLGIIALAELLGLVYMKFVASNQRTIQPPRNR

[5] = molecular target: T5, CD47 on human cells (CD47+, PDL1+); test: in vivo receptor occupancy: NSG mice injected with GV3 on three consecutive days, spleen cells harvested 1 hr and 24 hrs after the last injection, free CD47 read by SIRPA-tetramer binding (FACS) on human HL60-Tg(hPDL1, GFP) cells
T5 construct: These cells also carry human PD-L1; also called HL60-Tg(hPDL1, GFP) cells isolated from the spleen; human CD47+ PDL1+ cells
T5 sequence (chain, as listed by the source limits assumed): as the sequence (Q08722 19-323 limits assumed) above

[6] = molecular target: T2, CD47 on the surface of GFP-luciferase+ …
[7] = molecular target: T6, human PD-L1 (human, UniProt Q9NZQ7 19-239, limits assumed, biotinylated in Examples 4 and 5); test: SPR, HGV3 held on chip-captured biotinylated human CD47, then PD-L1 injected; the PD-L1 concentration is not shown
T6 construct: also called biotinylated human PD-L1
T6 sequence (Q9NZQ7 19-239 limits assumed): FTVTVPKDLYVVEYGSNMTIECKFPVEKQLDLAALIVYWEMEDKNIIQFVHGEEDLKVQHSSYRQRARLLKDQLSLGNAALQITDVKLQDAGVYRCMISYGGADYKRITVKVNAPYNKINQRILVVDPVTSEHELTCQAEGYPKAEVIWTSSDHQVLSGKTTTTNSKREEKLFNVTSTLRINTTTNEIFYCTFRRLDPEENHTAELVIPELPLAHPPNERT

- RO half-life [1]: ~10 h
- IC50 (read off the curve) [2]: ~700 pM
- Kd [3]: 92 pM
- dissociation half-life T1/2 [3]: ~0.733 h
- RO half-life [4]: ~5 h
- RO half-life [5]: ~30 h
- IC50 (read off the curve) [6]: ~1000 pM
- binding result [7]: no binding
B1: SIRP-gamma variant GV3 (designed binder)
chain: EEELQIIQPEKLLLVTVGKTATLHCTITSLFPVGPIQWFRGVGPGRVLIYNQKDGHFPRVTTVSDGTKRNNMDFSIRISSITPADVGTYYCVKFRKGSPEDVEFKSGPGTEMALGAKPSHHHHHHHH
notes: Monomers were made as MBP fusions in E. coli and MBP was removed with 3C protease; also called HGV3; human GV3
